From the RNAGym collection of RNA variant scans (doi:10.7554/elife.90254) come the findings set out here.

First the molecules themselves.
B1: LINE1-mini (parent)
chain: GGCAGAGCUCAACACAGCGUGGCAAAGUGGCUGUGGCUAGACUGCC

This series covers variants of B1. The experiment in a line: self-cleavage, relative activity (ratio to wild type); higher = more cleavage; in vitro, sequencing; the parent is a self-cleaving ribozyme.
For G1U G35U, the self-cleavage worked out at 0.17. As for G1U G35C, the self-cleavage was 0.07. The value for G1U G35A was 0.08; that for G2A U20A was 0.88. The value for G2A U20C was 0.48. The value for G2A U20G was 0.36; that for G2A G35A was 0.26; that for G2A G35C was 0.34. On to G2A G35U, for which the self-cleavage was found to be 0.41. Take G2A A12C: the self-cleavage came to 0.06. The value for G2A A12U was 0.41; that for G2A A12G was 0.14; that for G1U G22A was 0.25. G1U G22U: the self-cleavage is 0.43.

For G1U G22C, the self-cleavage was 0.23. To G2A G33C belongs 0.05. To G2A G33U belongs 0.13; to G2A G33A, 0.2; to G2C C8A, 0.17. As to G2C C8U, the self-cleavage amounted to 0.18. With G2C C8G, the self-cleavage stood at 0.08. The value for G1U A16U was 0.05; that for G1U A16C was 0.08; that for G1U A16G was 0.22.

With G1U G21C, the self-cleavage was found to be 0.39. To G1U G21A belongs 0.77; to G1U G21U, 0.41. To G1U C46U belongs 0.43; to G1U C46G, 0.74. The value for G1U C46A was 0.53; that for G1U C8A was 0.08.

For G1U C8G, the self-cleavage came out at 0.06. Take G1U C8U: the self-cleavage was 0.12.

Take G1U G7A: the self-cleavage worked out at 0.11. To G1U G7U belongs 0.06; to G1U G7C, 0.12; to G2A A39G, 0.22. For G2A A39U, the self-cleavage was determined as 0.76. To G2A A39C belongs 0.54.

Turning to G1U C18A, the self-cleavage is 0.16. The value for G1U C18G was 0.06. The value for G1U C18U was 0.51; that for G1U U20A was 0.31. G1U U20C: the self-cleavage stood at 0.22. G1U U20G: the self-cleavage stood at 0.16. The value for G2A A4C was 0.67; that for G2A A4U was 0.58.

G2A A4G: the self-cleavage was 0.42. To G1U A12G belongs 0.04; to G1U A12U, 0.08; to G1U A12C, 0.02. As for G2A C3A, the self-cleavage turned out to be 1.93.

Consider G2A C3G, for which the self-cleavage amounted to 0.76. Take G2A C3U: the self-cleavage was 0.9. To G2A A6C belongs 0.33; to G2A A6U, 1. Consider G2A A6G, for which the self-cleavage was 0.13. As for G2A U43C, the self-cleavage came to 0.13. As for G2A U43A, the self-cleavage was determined as 0.14. The value for G2A U43G was 0.14; that for G2A C8G was 0.13; that for G2A C8U was 0.43.

On to G2A C8A, for which the self-cleavage worked out at 0.61.

Regarding G2A U38A, the self-cleavage turned out to be 0.71. To G2A U38C belongs 0.7. As for G2A U38G, the self-cleavage was 0.05. In the case of G1U U43A, the self-cleavage came to 0.05.

On to G1U U43C, for which the self-cleavage was determined as 0.06. The value for G1U U43G was 0.07; that for G1U C37G was 0.03. For the variant G1U C37A, the self-cleavage was 0.06.

As to G1U C37U, the self-cleavage turned out to be 0.04.

Regarding G2A G30U, the self-cleavage was determined as 1.4.

In the case of G2A G30A, the self-cleavage was 1.67.

For the variant G2A G30C, the self-cleavage is 0.51. The value for G1U G29U was 0.38; that for G1U G29C was 0.2; that for G1U G29A was 0.44.

Take G2A A26C: the self-cleavage came out at 0.9. With G2A A26G, the self-cleavage was 0.6.

On to G2A A26U, for which the self-cleavage is 1.83. With G2A U32G, the self-cleavage is 0.2. In the case of G2A U32C, the self-cleavage came to 0.24.

G2A U32A: the self-cleavage came out at 0.14. For the variant G2A G7A, the self-cleavage came to 0.86.

Turning to G2A G7C, the self-cleavage came out at 0.39. For G2A G7U, the self-cleavage is 0.17. The value for G2C C13A was 0.08; that for G2C C13G was 0.03; that for G2C C13U was 0.18. To G2C C3A belongs 0.42; to G2C C3U, 0.54; to G2C C3G, 0.07. As for G2A G19C, the self-cleavage stood at 0.19. The value for G2A G19U was 0.72; that for G2A G19A was 1.72. To G2C G7C belongs 0.14.

On to G2C G7A, for which the self-cleavage worked out at 0.06. As to G2A G27U, the self-cleavage was found to be 0.75.

As to G2A G27A, the self-cleavage was determined as 0.66. On to G2A G27C, for which the self-cleavage stood at 0.72.

Turning to G2C A41U, the self-cleavage was 0.12. The value for G2C A41C was 0.12. For G2C A41G, the self-cleavage came to 0.17.

Take G1U G5U: the self-cleavage was determined as 0.09. The value for G1U G5A was 0.2; that for G1U G5C was 0.04. To G2A C18U belongs 0.46; to G2A C18G, 0.46. The value for G2A C18A was 0.16; that for G2A A24C was 1.16; that for G2A A24U was 0.86. With G2A A24G, the self-cleavage came to 1.04. The value for G2A U9A was 0.31. The value for G2A U9G was 0.25. To G2A U9C belongs 0.08; to G2C G5C, 0.02.

As for G2C G5A, the self-cleavage was found to be 0.05. Turning to G2C G5U, the self-cleavage was determined as 0.03.

G2A G5U: the self-cleavage was found to be 0.27. As for G2A G5A, the self-cleavage is 0.53. In the case of G2A G5C, the self-cleavage came to 0.06.

Regarding G1U A26U, the self-cleavage stood at 0.34. With G1U A26G, the self-cleavage came out at 0.31. On to G1U A26C, for which the self-cleavage came out at 0.32. To G1U U9G belongs 0.03; to G1U U9A, 0.03; to G1U U9C, 0.02. As for G2A C15G, the self-cleavage came out at 0.05.

With G2A C15U, the self-cleavage came out at 0.5.

In the case of G2A C15A, the self-cleavage amounted to 0.31. The value for G2C A4G was 0.16; that for G2C A4C was 0.11. The value for G2C A4U was 0.08; that for G2C A25U was 0.08. The value for G2C A25G was 0.06; that for G2C A25C was 0.15.

Take G1U C10G: the self-cleavage is 0.03.

As for G1U C10U, the self-cleavage came out at 0.08.

On to G1U C10A, for which the self-cleavage came out at 0.03. To G1U G44C belongs 0.14; to G1U G44A, 0.11. Turning to G1U G44U, the self-cleavage worked out at 0.15. In the case of G1U C45A, the self-cleavage was 0.26. To G1U C45G belongs 0.1. For the variant G1U C45U, the self-cleavage was 0.38. In the case of G2C A12U, the self-cleavage was 0.12. For G2C A12G, the self-cleavage was found to be 0.07. The value for G2C A12C was 0.02.

On to G1U U28C, for which the self-cleavage is 0.24. Regarding G1U U28G, the self-cleavage worked out at 0.2. In the case of G1U U28A, the self-cleavage was found to be 0.15. On to G2A A25U, for which the self-cleavage stood at 0.65. Consider G2A A25C, for which the self-cleavage came out at 0.62. For G2A A25G, the self-cleavage was 0.23. The value for G2C A26C was 0.11. The value for G2C A26U was 0.09; that for G2C A26G was 0.11. In the case of G1U C13U, the self-cleavage turned out to be 0.07.

On to G1U C13G, for which the self-cleavage stood at 0.13.

For the variant G1U C13A, the self-cleavage came out at 0.05. For G2C A39U, the self-cleavage worked out at 0.1. Regarding G2C A39G, the self-cleavage stood at 0.09.

For the variant G2C A39C, the self-cleavage amounted to 0.09.

As for G2A C23A, the self-cleavage was found to be 1.04. To G2A C23U belongs 2.33; to G2A C23G, 0.4.
